Test results reported in patent US20250002574A1.

Target: IL-11 (UniProt P20809)
Test: ELISA on IL-11, positive control antibody ab130083

Sequence of IL-11 (P20809 22-199 limits assumed): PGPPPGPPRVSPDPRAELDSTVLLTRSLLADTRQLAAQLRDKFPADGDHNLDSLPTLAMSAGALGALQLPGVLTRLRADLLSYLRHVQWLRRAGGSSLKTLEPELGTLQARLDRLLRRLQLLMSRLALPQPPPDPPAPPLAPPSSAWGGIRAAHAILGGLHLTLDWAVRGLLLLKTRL

OD(450 nm) value: 3.62 OD450
Substance: 6D9A1 (Abcam, ab130083) (antibody)
